Where only a bound is given, the exact number is not on record here.

This note sets out measurements from patent US20160311918A1, “Anti-Ron Monoclonal Antibodies as a Cytotoxic Drug Delivery System for Targeted Cancer Therapy” (TEXAS TECH UNIVERSITY SYSTEM, priority 2013, published 2016).

Data set [1] has as its target T1, RON on HCT116, HT29, and SW620 cells (Homo sapiens, UniProt Q04912).
T1 construct: We selected CRC cell lines LoVo, DLD1, HT29, HCT116, and SW620 expressing variable levels of RON as the cellular model; host or cells: HCT116, HT29, SW620
The data set can be described thus: Flow cytometric binding to CRC cell lines. Conditions: all three CRC cell lines, flow cytometry. In general terms: In flow cytometry, cells or beads pass a laser one at a time.
Method: FIG. 2B: Binding of Zt/g4-DM1 to human CRC cell lines: HCT116, HT29, and SW620 cells (1×10^5 cells) were incubated with 5 μg Zt/g4-DM1 or Zt/c1-DM1. Free Zt/g4 and Zt/c1 was used as the control. Fluorescence intensity from individual samples was determined by flow cytometric analysis.
The binding capacity of Zt/g4-DM1 to RON was determined by flow cytometric analysis.

Data set [2] in a line: In vivo toxicity in athymic nude mice. More on the design: species or system mouse. The method, then:
FIGS. 6A to 6C show the toxicity of Zt/g4-DM1 in vivo. Body weight was measured every four days during the period of Zt/g4-DM1 treatment. FIG. 6A: Effect of multiple doses of Zt/g4-DM1 on mouse body weight was determined by administration of Zt/g4-DM1 at 1, 3, 7, 10, 15 mg/kg every four day with a total of 5 injections. Mice were weighed and monitored for a total of 31 days. FIG. 6B: Effect of a single dose of Zt/g4 at 20 mg/kg on mouse body weight was determined using mice bearing HT29, HCT116, or SW620-derived tumors. Body weight was monitored up to 28 days. FIG. 6C: Effect of high doses of Zt/G4-DM1 on mouse body weight was analyzed by tail vein injection at 20, 40 and 60 mg/kg to Balb/c mice. Mice were euthanized at day 21. In all cases, the average body weight of mice before Zt/g4-DM1 injection was 19.8±3.6 grams (5 mice per group) and set as 100%;
In vivo toxicity studies: Acute toxicity with maximum tolerated dose was determined in Balb/C mice (four mice per dose) by a single tail vein injection of Zt/g4-DM1 at 20, 40, and 60 mg/kg body weight. Toxicity associated with different therapeutic doses was evaluated in athymic nude mice bearing HT29 tumor xenograft (five mice per dose). […] Toxicity was assessed by observing mouse behavior, weight loss, and survival.
Toxic effect of Zt/g4-DM1 on mice. Three studies using two different types of mice were performed to study Zt/g4-DM1 on animal behavior and body weight. The first study addressed the impact of multi-doses of Zt/g4-DM1. Athymic nude mice were injected five times with 1, 3, 5, 7, 10, 15 mg/kg of Zt/g4-DM1 and monitored every four days for a total period of 31 days. […] The second study observed the effect of a single dose of Zt/g4-DM1 at 20 mg/kg in nude mice bearing tumors derived from HT29, HCT116, and SW620 cells. […] The third study involved a single-dose injection of Zt/g4-DM1 at 20, 40, and 60 mg/kg in Balb/c mice monitored for 24 days (FIG. 6C). […] Also, a moderate reduction of about 6% body weight was observed within the first four days after 60 mg/kg Zt/g4-DM1 injection. […]

The test system of data set [3] is HT29, HCT116, and SW620 cells. The experiment in a line: Cell cycle analysis by flow cytometry. The data set is classed as cell-based, human. Conditions: 5 μg/ml.
Setting [4] is: five injections of 1, 3, 5, 7, 10, 15 mg/kg, 31 days.

B1: Zt/g4-DM1: anti-RON mouse mAb Zt/g4 conjugated to maytansinoid DM1 via non-reducible thioether linkage (SMCC), DAR about 4:1 (conjugate)
VH: EVQLQQSGAELVKPGASVKLSCTTSGFNIIDTYIHWVNQKPDQGLEWIGRIDPADGNRKSDPKFQVKATITVDTSSNTAYLQLSSLTSGDTAVYYCARGYGNLNAMDSWGQGTSVTVSS
VL: DIQMNQSPSSLSASLGDTITITCHASQNINVWLNWYQQKPGNIPKLLIYKASNLHTGVPSRFSGSGSGTGFTLTISSLQPEDIATYYCQQGQSYPLTFGGGTKLEIK
Regarding B1, the “binding intensity compared with free Zt/g4” value in data set [1] is reported as “No difference in binding intensity”. Moreover, in data set [2] (setting [4]), the average body weight result is reported as “comparable to that of control mice with no differences” and the mouse behavior result was “behaved normally”. The “behavior and body weight” value in data set [2] (single dose 20 mg/kg, tumor-bearing nude mice) is reported as “No changes in behavior or body weight were observed”. The “time at which cell cycle profile changes were observed” value in data set [3] is not above 3 h. In addition, the “effect on cell cycle” value in data set [3] (three CRC cell lines) is given as “dramatic increase in G2/M phase”.
